Experiments:
human insulin receptor [1] = biological target: T1, human insulin receptor (human, UniProt P06213 28-1382); test: FACS, serum-starved CHO-K1 cells expressing human INSR, no insulin [cont'd]
T1 construct: whole, on cells; Uncomplexed receptor on serum-starved cells (CHOK1 transfectants or IM-9); also called hINSR; INSR
Experimental: (§1) Twenty five microliter aliquots of cells were plated into 96 well plates, mixed with 25 ul of antibody or PPE and incubated on ice for 1 h.
(§2) The cells were then washed once with FACS buffer and the binding of the antibody was detected by the addition of 25 ul of an appropriate fluorochrome-conjugated secondary antibody. […] After a final 15 min incubation on ice the cells were washed and the pellets resuspended in FACS buffer. The cells were analyzed on a FACSCAN™ (Becton-Dickinson, Milipitas, Calif.) and the data analyzed in both FLOWJO™ (Treestar, Ashland, Oreg.) and Microsoft Excel™.

[2] = biological target: T2, mouse insulin receptor complexed with human insulin (mouse; human, UniProt P15208 28-1372; P01308 25-54; P01308 90-110); test: FACS, serum-starved CHO-K1 cells expressing mouse INSR, with insulin [cont'd]
T2 construct: whole, on cells;mature; also called muINSR/hINS complex

[3] = biological target: T3, human insulin receptor complexed with human insulin (human, UniProt P06213 28-1382; P01308 25-54; P01308 90-110); test: FACS, serum-starved CHO-K1 cells expressing human INSR, with insulin [cont'd]
T3 construct: whole, on cells;mature; also called hINSR-hINS complex; INS/INSR complex
Experimental: as §1, §2

[4] = biological target: T2, mouse insulin receptor complexed with …; test: FACS, CHO-K1 mouse INSR cells, signal with insulin divided by signal without insulin [cont'd]
Experimental: as §1, §2

mouse insulin receptor [5] = biological target: T4, mouse insulin receptor (mouse, UniProt P15208 28-1372); test: FACS, serum-starved CHO-K1 cells expressing mouse INSR, no insulin [cont'd]
T4 construct: whole, on cells; also called muINSR; mINSR
Experimental: as §1, §2

[6] = biological target: T3, human insulin receptor complexed with …; test: FACS, CHO-K1 human INSR cells, signal with insulin divided by signal without insulin [cont'd]
Experimental: as §1, §2

[7] = biological target: T3, human insulin receptor complexed with …; test: KinExA antibody depletion by hINSR8-CHOK1 cells, with 175 nM insulin
Experimental: (§3) Beads were rotated at room temperature for 6 hours then allowed to settle. Supernatant was replaced with PBS with 50 mg/mL BSA Fraction V (Sigma-Aldrich, St. Louis, Mo.) and rotated overnight at 4° C. […] On the KinExA 3000 the sample was injected at 0.25 mL/minute for 240 seconds, then rinsed for 60 seconds in running buffer (PBS with 0.05% sodium azide), then 240 seconds of the detection solution was injected, followed by a final 90 second wash at 1 mL/minute. The difference in voltage from an early initial time-point and a time point near the end of the run was measured and used to calculate affinities. The INSR concentration on the cells was estimated at 2.5×10⁵ receptors/cell. Affinity was determined using the KinExA software (Sāpidyne, Boise Id.) and EC50's were calculated by non-linear fit in Prism (GraphPad Software, La Jolla Calif.).
(§4) Samples were incubated overnight at 4° C. for 18 hours then centrifuged to pellet cells and supernatants were removed for testing on the KinExA. […] Detection solution used was R-PE-(Fab′)2 fragment goat anti-Human IgG(H+L) (Jackson Immuno Research, West Grove Pa.).

human insulin receptor [8] = biological target: T1, human insulin receptor; test: KinExA antibody depletion by hINSR8-CHOK1 cells, without insulin
Experimental: as §3, §4

[9] = biological target: T3, human insulin receptor complexed with …; test: KinExA, affinity with insulin against affinity without insulin
Experimental: as §3, §4

mouse insulin receptor [10] = biological target: T4, mouse insulin receptor; test: cell-based or functional assay
human insulin receptor [11] = biological target: T1, human insulin receptor; test: cell-based or functional assay

| FACS area under log transformed data MFI (human insulin receptor [1]) | FACS area under log transformed data MFI [2] | FACS area under log transformed data MFI [3] | FACS area under log transformed data MFI ratio (+insulin/-insulin) [4] | FACS area under log transformed data MFI (mouse insulin receptor [5]) | FACS area under log transformed data MFI ratio (+insulin/-insulin) [6] | Kd [7] | Kd (human insulin receptor [8]) | Fold Improvement with Insulin [9] | EC50 of pAkt activation without insulin, mouse INSR CHO-K1 cells (mouse insulin receptor [10]) | relative maximum pAkt activation without insulin, mouse INSR CHO-K1 cells (mouse insulin receptor [10]) | EC50 of pAkt activation without insulin, human INSR CHO-K1 cells (human insulin receptor [11]) | relative maximum pAkt activation without insulin, human INSR CHO-K1 cells (human insulin receptor [11]) | Binder |
| --- | --- | --- | --- | --- | --- | --- | --- | --- | --- | --- | --- | --- | --- |
| 552 | 391 | 543 | 1.46 | 268 | 0.98 | – | – | – | – | – | – | – | Ab076 (antibody, V domains shown, also called XPA.015.241) VH: EVQLVESGGGVVQPGGSLRLSCAASGFTFDDYAMHWVRQAPGKGLEWVSLISWDGGSTYYADSVKGRFTISRDNSKNSLYLQMNSLRAEDTALYYCAKARGVVIIDYWGQGTLVTVSS VL: EIVMTQSPATLSVSPGERATLSCRASQSISTNLAWYQQKPGQTPRLLIYGASTRATGIPARFSGSGSGTEFTLTISSLQSEDFAVYYCQQYNSEISFGQGTRLEIK |
| – | 179 | 294 | – | 81 | – | 376 pM | 7600 pM | – | – | – | – | – | Ab083 (antibody, IgG2, V domains shown, also called XPA.015.249) VH: not shown VL: AIQLTQSPSSLSASVGDRVTISCRASQSITSYLNWYQQKPGKAPNLLIYAASSLQSGVPSRFSGSGSGTDFTLTIAGLQPEDFATYYCQQFDSYPFTFGGGTKLEIK |
| – | – | – | – | – | – | 80 pM | 108 pM | 1.4 fold | 1.42 nM | 42% | 0.65 nM | 79% | Ab037 (antibody, V domains shown, Partial allosteric agonist; also called XPA.015.048) VH: EVQLLESGGGLVQPGGSLRLSCAASGFTFSSYEMNWVRQAPGKGLEWVSSISSSSRYADVANSVVGRFTISRDNSKNTLYLQMNSLRAEDTAVYYCARGEWLDHFDYWGQGTLVTVSS VL: QSVLTQPPSASGTPGQRVTISCSGSSSNIGNSAVNWYQQLPGTAPKLLIYDNNKRPSGVPDRFSGSKSGTSASLAISGLRSEDEADYYCQVWDSGTAVFGGGTKLTVLG |
| 596 | 503 | 260 | 0.54 | 932 | 0.44 | – | – | – | – | – | – | – | Ab074 (antibody, IgG2, V domains shown, also called XPA.015.230) VH: EVQLVQSGAEVKKPGESLKISCKGSGYSFTSYWIGWVRQMPGKGLEWMGIIYPGDSDTRYSPSFQGQVTISADKSISTAYLQWSSLKASDTAMYYCARWDAGYSPWGQGTLVTVSS VL: SSELTQDPAVSVALGQTVRITCQGDSLRSYYASWYQQKPGQAPVLVIYGKNNRPSGIPDRFSGSSSGNTASLTITGAQAEDEADYYCSSRDSSGDQWVFGGGTKLTVL |
| 490 | 518 | – | 0.63 | 818 | – | – | – | – | – | – | – | – | Ab071 (antibody, IgG2, V domains shown, also called XPA.015.227) VH: EVQLVQSGAEVKKPGESLKISCKGSGYSFTSYWIGWVRQMPGKGLEWMGIIYPGDSDTRYSPSFQGQVTISADKSISTAYLQWSSLKASDTAMYYCARWDAGYSPWGQGTLVTVSS VL: SSELTQDPAVSVALGQTVRITCQGDSLRSYYASWYQQKPGQAPVLVFYGKNNRPSGIPGRFSGSKSGNTASLTITGAQAEDEADYYCNSRDSSGNHWVFGGGTKLTVL |
| 532 | 344 | 508 | 1.75 | 196 | 0.95 | – | – | – | – | – | – | – | Ab084 (antibody, IgG2, V domains shown, also called XPA.015.250) VH: QVQLVESGGGLVQPGGSLRLSCAASGFTFKNYWMTWVRQAPGKGLEWVADIKGDGSRQHYADSVKGRFTISRDNARNSLFLQMNSLRVEDTALYYCATDPPWDRDAFDLWGQGTMVTVSS VL: AIRMTQSPSTLSASVGDRVTITCRASQSISSWLAWYQQTPGKAPKLLIYAASNLQSGVPSRFSGSGSGTDFTLTISSLQPEDFATYYCQQSYNTPLTFGGGTKVEIK |
| 729 | 321 | 341 | 1.05 | 307 | 0.47 | – | – | – | – | – | – | – | Ab073 (antibody, IgG2, V domains shown, also called XPA.015.229) VH: QVQLQESGPGLVKPSGTLSLTCAVSGGSISSSNWWSWVRQPPGKGLEWIGEIYHSGSTNYNPSLKSRVTISVDKSKNQFSLKLSSVTAADTAVYYCARVGAAAAWFDPWGQGTLVTVSS VL: QSVLTQPPSVSAAAGQKVTISCSGSSSNIGNNYVTWYQHVPGTAPKLLIFDNDKRPSGIPDRFSGSKSGTSATLAITGLQTGDEADYYCGTWDSSLNPLFGGSTQLTVL |
| 692 | 446 | 353 | 1.05 | 425 | 0.51 | – | – | – | – | – | – | – | Ab075 (antibody, IgG2, V domains shown, also called XPA.015.232) VH: EVQLVETGGGVVQPGRSLRLSCAASGFSFSSYDMYWVRQAPGKGLEWVAVISYDGNDKQYADSVKGRFTISRDNSKRTLYLQMDSLRTEDTATYYCTREGNGREIDYWGPGTLVTVSS VL: QSVLTQPPSVSAAPGQKVTISCSGSSSNIGNNYVTWYQHVPGTAPKLLIFDNDKRPSGIPDRFSGSKSGTSATLAITGLQTGDEADYYCGTWDSSLNPLFGGGTQLTVL |
| 226 | 267 | – | 0.53 | 508 | – | – | – | – | – | – | – | – | Ab072 (antibody, IgG2, V domains shown, also called XPA.015.228) VH: QMQLVQSGAEVKKPGESLKISCKGSGYSFTGYWIGWVRQMPGKGLEWMGIIYPGDSDTRYSPSFQGQVTISADKSISTAYLQWSSLKVSDTAMYYCGRISTPYAFDIWGQGTMVTVSS VL: SYVLTQPPSASGTPGQRVTISCSGSNSNIGSNFVTWYQQLPGAAPKLLIYTNSQRPSGVPDRFSGSRSGTSASLAISGLQSEDEADYFCAAWDDSLNGPVFGGGTQLTVL |
| 399 | 267 | – | 1.04 | 257 | – | – | – | – | – | – | – | – | Ab082 (antibody, IgG2, V domains shown, also called XPA.015.248) VH: QMQLVQSGAEVKKPGESLKISCKGSGYSFTSYWIGWVRQMPGKGLEWMGIIYPGDSDTRYSPSFQGQVTISADKSISTAYLQWSSLKASDTAMYYCARWGPDAFDIWGQGTMVTVSS VL: EIVLTQSPDFQSVTPKETVTISCRASQNIGVSLHWYQQKPDQSPKVLIKYASQSLSGVPSRFSGTGSGTDFTLTIKSLEAEDAATYYCLQTSSLPWTFGQGTKVEIK |

Reference: patent publication US20160009800A1 (XOMA US, published 2016)
